In the supplement of paper PMC10126150:
± gives the standard deviation of the averaged measurements.

Tested on: ATP
Test: switch fluorescence ratio, 500 uM ATP over buffer (Cy3 cluster intensity, sum of 5 cycles each) (fold (ratio)); higher = stronger signal-on switching upon ATP binding; sequences stand for … in TCGTCGGCAGCGTCAGATGTGTATAAGAGACAGTTTTTTTTTTTTTTTTTTTTTTTTT…TC
Conditions: aptamer strand: ATP DNA aptamer (quencher-CACCTGGGGGAGTATTGCGGAGGAAGG + anchor), 100 nM annealed; ATP concentration: 500 uM
Summary of the method: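 Cy3-labelled switching-strand clusters on a modified Illumina MiSeq flow-cell were annealed to 100 nM quencher-labelled ATP aptamer, imaged in selection buffer, then imaged after 15 min with 500 uM ATP at 22 °C. Five buffer/ATP cycles ran, with NaOH stripping and re-annealing between them. The fluorescence ratio is summed target-cycle over summed buffer-cycle Cy3 intensity per cluster, averaged per switch-domain sequence. Clusters outside 100-1000 RFU were excluded.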
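Also: ATP exposure 15 min at 22 °C before imaging.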

Sequence	switch fluorescence ratio
GAAAGCGGCT	1.032 ± 0.0089
GAAAGGCAAA	1.025 ± 0.0026
GAAAGGCAGA	1.01 ± 0.01
GAAAGGGCTC	1.09 ± 0.069
GAAAGGGGAT	0.99 ± 0.018
GAAAGGGGGG	1.04 ± 0.098
GAAAGGGGTG	1.02 ± 0.064
GAAAGTGCAA	1.09 ± 0.02
GAAAGTTTGG	1.01 ± 0.017
GAAATACGGG	1.09 ± 0.043
GAAATATCAA	0.974 ± 0.039
GAAATCATCA	0.96 ± 0.025
GAAATGTCGG	1.02 ± 0.028
GAAATGTGTT	1 ± 0.056
GAAATTAAGT	1.02 ± 0.045
GAAATTAATA	0.993 ± 0.027
GAAATTGGGA	1.08 ± 0.12
GAAATTTAAA	0.99756 ± 0.00083
GAAATTTACT	0.991 ± 0.053
GAAATTTTCC	1.35 ± 0.077
GAACAAGGGA	1.004 ± 0.0086
GAACACTTCT	1.05 ± 0.014
GAACAGTCCG	1.051 ± 0.0039
GAACATCTCG	0.993 ± 0.035
GAACGAAAGG	1.03 ± 0.042

Sequence	switch fluorescence ratio
GAACGACCGC	1.34 ± 0.065
GAACGGACAC	1.45 ± 0.015
GAACGGCATG	1.04 ± 0.015
GAACGGCCGG	1.004 ± 0.0092
GAACTACAGG	0.987 ± 0.041
GAACTCTACT	1.14 ± 0.044
GAACTGGGGC	0.942 ± 0.076
GAAGAAAACT	1.08 ± 0.014
GAAGAACGAA	1.022 ± 0.004
GAAGACAGCG	1.07 ± 0.024
GAAGAGAGGG	1.016 ± 0.0092
GAAGAGAGGT	0.9901 ± 0.0037
GAAGAGGAGG	1.04 ± 0.011
GAAGAGGGGG	0.991 ± 0.043
GAAGAGTCGT	0.992 ± 0.064
GAAGATGTAG	0.9558 ± 0.0033
GAAGATTGGT	0.981 ± 0.028
GAAGCACGCC	1.45 ± 0.0069
GAAGCCGGGG	0.9839 ± 0.0083
GAAGCGTTTG	0.98 ± 0.039
GAAGGAGTGC	1.07 ± 0.018
GAAGGAGTGG	1.027 ± 0.01
GAAGGCAGTC	1.13 ± 0.04
GAAGGCAGTG	1 ± 0.011
GAAGGCGTTT	0.9778 ± 0.0032

Sequence	switch fluorescence ratio
GAAGGGAATG	1.01 ± 0.017
GAAGGGACGT	1.07 ± 0.026
GAAGGGCATA	1.02 ± 0.019
GAAGGGCATC	0.989 ± 0.043
GAAGGGCGGA	1.018 ± 0.0045
GAAGGGCTGT	0.993 ± 0.029
GAAGGGGTCA	0.9904 ± 0.0089
GAAGGGTAAC	1.03 ± 0.018
GAAGGTATTG	0.977 ± 0.013
GAAGGTCCAC	1.017 ± 0.0078
GAAGGTGGCT	1.01 ± 0.026
GAAGTAGCGA	1.05 ± 0.015
GAAGTAGGAG	1.01 ± 0.032
GAAGTCCAGA	1.01 ± 0.07
GAAGTCCGGG	0.9871 ± 0.0048
GAAGTCTTAA	1 ± 0.033
GAAGTGAGTT	1 ± 0.018
GAAGTGATGG	1.135 ± 0.008
GAAGTGGCTT	0.9801 ± 0.0014
GAAGTGGGTT	0.989 ± 0.024
GAAGTTCAGG	1.03 ± 0.018
GAAGTTTGTA	0.992 ± 0.022
GAATAAAAAC	1.01 ± 0.013
GAATAAAAGC	0.9901 ± 0.0063
GAATAAAATA	1.02 ± 0.039

Sequence	switch fluorescence ratio
GAATAGGTTA	0.983 ± 0.026
GAATAGTCAG	0.978 ± 0.033
GAATATCAAG	0.9871 ± 0.0064
GAATATGCCG	0.972 ± 0.019
GAATATGGGT	0.995 ± 0.015
GAATCGATTT	1.02 ± 0.027
GAATCGTTTT	0.9553 ± 0.0068
GAATGAAAAT	0.997 ± 0.022
GAATGAACCA	0.998 ± 0.049
GAATGACAGT	0.978 ± 0.018
GAATGACCGT	1.01 ± 0.024
GAATGACGGA	1.02 ± 0.057
GAATGATGGC	0.939 ± 0.065
GAATGCAAAG	1.03 ± 0.041
GAATGGGATG	1.002 ± 0.0023
GAATGGGGGC	0.98 ± 0.036
GAATGGGGGT	0.982 ± 0.02
GAATGGGTGA	0.983 ± 0.028
GAATGGTCCC	1.02 ± 0.012
GAATGGTGGG	0.988 ± 0.019
GAATGTCGGG	0.97965 ± 8.2e-05
GAATTAAGCT	1 ± 0.015
GAATTAATGG	1.02 ± 0.07
GAATTAATTT	1 ± 0.04
GAATTAGTTA	1.01 ± 0.02
